According to patent US12194080B2, “Methods for identification, assessment, prevention, and treatment of metabolic disorders using PM20D1 and N-lipidated amino acids” (Dana-Farber Cancer Institute, Inc., priority 2015, dated 2025):
“Also recorded” adds a separate entry of the source.

Legend:
mouse PM20D1 [1] = biological target: T1, mouse PM20D1 (Mus musculus, UniProt Q8C165); test: In vitro PM20D1-catalyzed synthesis of N-acyl amino acids; type: biochemical; settings: PBS, 37° C., 1.5 h
T1 construct: Full-length mouse Pm20d1 cDNA (GE Dharmacon) was subcloned with an in-frame C-terminal 6× His and FLAG® tag; made in house; host or cells: 293A (HEK293A) cells stably infected with retrovirus
T1 sequence (Q8C165 25-503): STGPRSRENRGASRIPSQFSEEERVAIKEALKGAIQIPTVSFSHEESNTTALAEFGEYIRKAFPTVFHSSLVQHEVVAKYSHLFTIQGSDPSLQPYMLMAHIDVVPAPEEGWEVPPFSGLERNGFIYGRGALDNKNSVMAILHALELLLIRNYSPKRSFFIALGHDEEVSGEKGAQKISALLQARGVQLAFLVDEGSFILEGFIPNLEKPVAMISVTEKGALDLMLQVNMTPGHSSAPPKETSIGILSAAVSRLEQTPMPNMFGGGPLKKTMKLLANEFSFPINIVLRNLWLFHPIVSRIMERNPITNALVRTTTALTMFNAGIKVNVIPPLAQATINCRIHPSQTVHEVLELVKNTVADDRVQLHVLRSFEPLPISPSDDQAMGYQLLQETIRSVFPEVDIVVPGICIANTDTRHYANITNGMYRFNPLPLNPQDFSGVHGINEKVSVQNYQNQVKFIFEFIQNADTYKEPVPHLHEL
Description: (§1) The concentrated media was centrifuged to remove debris (600×g, 10 min, 4° C.) and the supernatant containing PM20D1-flag was decanted into a new tube. PM20D1-Flag was immunoaffinity purified overnight at 4° C. from the concentrated media using magnetic Flag-M2 beads (Sigma Aldrich). The beads were collected, washed three times in PBS, eluted with 3× Flag peptide ([…] in PBS, Sigma Aldrich), aliquoted, and stored at −80° C. For the purification of human PM20D1-flag, hPM20D1-flag plasmid (Origene) was transiently transfected into 293A cells. After two days, the media was changed, harvested 24 h later, concentrated, and purified exactly as described above.
(§2) In vitro PM20D1-catalyzed synthesis of N-acyl amino acids was measured by incubating purified PM20D1 protein with oleate (1.5 mM) and phenylalanine (0.1 mM) in PBS (to 100 μl final volume) at 37° C. for 1.5 hrs. In vitro PM20D1-catalyzed N-acyl amino acid hydrolysis was measured by incubating purified PM20D1 protein with the indicated N-acyl amino acid (0.1 mM) in PBS (to 100 μl final volume) at 37° C. for 1.5 hrs. Reactions were terminated by placing the vials at −80° C. and the products generated in vitro were analyzed by mass spectroscopy (MS).
(§3) Briefly, frozen serum (30 μl) for polar metabolomic analyses were extracted in 160 μl of 1:1 acetonitrile/methanol with inclusion of internal standard D3, ^15N-serine (1 nmol). Activity assays (100 μl) were extracted in 400 μl 1:1 acetonitrile/methanol. Following 30 s of thorough vortexing and 1 min of bath sonication, the polar metabolite fraction (supernatant) was isolated by centrifugation at 13,000×g for 10 min. Ten μl of this supernatant was analyzed by SRM-based targeted LC-MS/MS, or untargeted LC-MS.
(§4) For separation of polar metabolites, normal-phase chromatography was performed with a […] column (50 mm×4.60 mm, Phenomenex). Mobile phases were as follows: Buffer A, acetonitrile; Buffer B, 95:5 water/acetonitrile with 0.1% formic acid or 0.2% ammonium hydroxide with 50 mM ammonium acetate for positive and negative ionization mode, respectively. The flow rate for each run started at 0.2 ml/min for 2 min, followed by a gradient starting at 0% B and increasing linearly to 100% B over the course of 15 min with a flow rate of 0.7 ml/min, followed by an isocratic gradient of 100% B for 10 min at 0.7 ml/min before equilibrating for 5 min at 0% B with a flow rate of 0.7 ml/min. MS analysis was performed with an electrospray ionization (ESI) source on an Agilent 6430 QQQ LC—MS/MS. The capillary voltage was set to 3.5 kV, and the fragmentor voltage was set to 100 V. The drying gas temperature was 325° C., the drying gas flow rate was 10 l/min, and the nebulizer pressure was 45 psi. For polar targeted and untargeted metabolomic analysis, representative metabolites were quantified by SRM of the transition from precursor to product ions (corresponding to amino acid fragment) at associated collision energies. Several representative fragmentation ions are as follows: C18:1-Ala, 352>88; C18:1-Gly, 338>74; C18:1-Phe, 428>164; C18:1-Leu/Ile, 394>130; C20:4-Phe, 450>164; C20:4-Leu/Ile, 416>130. Untargeted LC-MS was performed by scanning a mass range of m/z 50-1200, and data were exported as mzdata files and uploaded to XCMSOnline (xcmsserver.nutr.berkeley.edu) to identify metabolites that were differentially changed. For targeted metabolomics analysis, metabolites were quantified by integrating the area under the peak and were normalized to internal standard values corresponding to 1 nmol D3, ^15N-serine.

mouse PM20D1 [2] = biological target: T1, mouse PM20D1; test: In vitro PM20D1-catalyzed N-acyl amino acid hydrolysis; type: biochemical; settings: PBS, 37° C., 1.5 h
Description: as §1, §2, §3, §4

APOA1 = test: FLAG immunoprecipitation of PM20D1-flag from primary brown fat cells with mass spectrometry identification; type: binding, mouse
From the text: The mass spectrometry identification of the indicated proteins (PM20D1 or APOA1) are indicated to the right of the gel.

B1: PM20D1: purified recombinant C-terminal 6xHis/flag-tagged mouse peptidase M20 domain containing 1, a secreted enzyme (protein, listed as Homo sapiens)
chain: MAQRCVCVLALVAMLLLVFPTVSRSMGPRSGEHQRASRIPSQFSKEERVAMKEALKGAIQIPTVTFSSEKSNTTALAEFGKYIHKVFPTVVSTSFIQHEVVEEYSHLFTIQGSDPSLQPYLLMAHFDVVPAPEEGWEVPPFSGLERDGIIYGRGTLDDKNSVMALLQALELLLIRKYIPRRSFFISLGHDEESSGTGAQRISALLQSRGVQLAFIVDEGGFILDDFIPNFKKPIALIAVSEKGSMNLMLQVNMTSGHSSAPPKETSIGILAAAVSRLEQTPMPIIFGSGTVVTVLQQLANEFPFPVNIILSNPWLFEPLISRFMERNPLTNAIIRTTTALTIFKAGVKFNVIPPVAQATVNFRIHPGQTVQEVLELTKNIVADNRVQFHVLSAFDPLPVSPSDDKALGYQLLRQTVQSVFPEVNITAPVTSIGNTDSRFFTNLTTGIYRFYPIYIQPEDFKRIHGVNEKISVQAYETQVKFIFELIQNADTDQEPVSHLHKL
modifications: C-terminal 6xHis/flag tag
notes: purified recombinant C-terminal 6xHis/flag-tagged mouse peptidase M20 domain containing 1, a secreted enzyme
conversion in the synthase direction (mouse PM20D1 [1]; oleate 1.5 mM, Phe 100 μM, n=3): 1.2±0.1%
N-acyl amino acid synthase activity (mouse PM20D1 [1]; oleate and Phe as substrates): Significant formation of C18:1-Phe; also recorded: possessed enzymatic activity
conversion in the hydrolase direction (mouse PM20D1 [2]; C18:1-Phe 100 μM, n=3): 94.0±0.8%
N-acyl amino acid hydrolase activity (mouse PM20D1 [2]; C18:1-Phe as substrate): possessed enzymatic activity
interaction with apolipoprotein 1 (APOA1) (APOA1): interacts with apolipoprotein 1 (APOA1)
